Source: IntAct's records for PubMed 25218446

B1: Pre-mRNA-splicing factor CWC26 (Saccharomyces cerevisiae), P46947 (parent)
chain: MALHQYLSETYGPTKPKNKTKKKKKESKSDANSDKTSLIVKERLSTLQQEQEKSGVASFSKFDKQKSKNIWKNLETNELSHAITHPSASSITGNESKNDLKEIRAQEPLVTVADKSKTRKTIYRDAQGHKIQEDSKIDDSSFSRSKYEDEKAAEREQYLKNLNMGDVQKLGINVDAHDKKKNQTASSLTIEDPAITFTHDKERTVKTSLLGRKLYDKPAPENRFAIMPGSRWDGVHRSNGFEEKWFAKQNEINEKKVQSYTLQEDY
partner: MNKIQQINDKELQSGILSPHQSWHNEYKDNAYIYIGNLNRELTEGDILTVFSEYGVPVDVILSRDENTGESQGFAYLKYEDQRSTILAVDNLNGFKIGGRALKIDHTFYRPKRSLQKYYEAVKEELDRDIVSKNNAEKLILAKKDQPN
B2: Pre-mRNA leakage protein 1 (Saccharomyces cerevisiae), Q07930 (parent)
chain: MFHRRKRPYNTRNYGHDDKKFKSQYIDIMPDFSPSGLLELESNNKEGIALKHVEPQDAISPDNYMDMLGLEARDRTMYELVIYRKNDKDKGPWKRYDLNGRSCYLVGRELGHSLDTDLDDRTEIVVADIGIPEETSSKQHCVIQFRNVRGILKCYVMDLDSSNGTCLNNVVIPGARYIELRSGDVLTLSEFEEDNDYELIFMNV
partner: B1 partner

Variants of: B1
Details: with ist3_yeast IST3, P40565

| effect of a mutation on the interaction | Variant |
| --- | --- |
| decreasing interaction strength | F224A |
| disrupting interaction strength | W232A |
| decreasing interaction strength | V235A |
| disrupting interaction strength | R237A |

Variants of: B2
Details: with ist3_yeast IST3, P40565

| effect of a mutation on the interaction | Variant |
| --- | --- |
| disrupting interaction strength | F32A |
| decreasing interaction strength | L38A |
